Results on 16 sequences are retold here after a protein production outcome set (Wang et al. 2014).

The series in a line: label from the status in PepcDB records.
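Further: failed if final PepcDB status was selected cloned or expressed and not failed if soluble or beyond.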

“MARSVVVSAEAVYSHEGEYVGDHVLVDEGLVKSISRGEPHVSVGKRVAVKGFLLPPLVDAHLHMRSLGASFRIVNLKGASSPEEVAKRLAAANSPIAVGRGWNEEEFRPGSRLDRRILDSYLGEKPALAVRICGHVAVANSAFIRESGVDKLFPNLVDRERGLLLEDAVSYAVSVAMKTYNNEELLRDAASALASVGVFGVSSMACSEEEVRALSLIGDALEVRVACYLRRGVEPPPKRAGARWSIVGVKLFADGSLGGRTAYLRRPYISGENEGWRGLKLLSSRDIAEEAVSNSHRGLATAVHAIGDAALDEVLEGFSNAISRGVEPGMLRVEHASLAWPNQIDRLASLRVWTVVQPLFRVSDWWLESRVGSDMLQAAYPFASMLRAGVKLALSTDAPVETYDPAETFKAAVGLCSSRLCRESESLTPRETLKLYTLNSALASGGPVAWLGRLRRGAPALFAVANVDVLNSGRKELEKLKFRGLNLAK”: the protein production entry is given as “failed”.

On to “MASASFSAVSSLSYQFRSKEAIFSSKASCFSSTALSGRRVFGSIKAAQVTSHENPRRRTQNVEGDIFVDNTCIDCDTCRWMVPDLFTRVDNMSAVTKQPTCKEERLNALQALLSCPTGSIRTQTPPADIGEAQETFPLVVDKDTLPGVFHCGFHSKKSYGATSYLILHREGNILVDSPRYVEKLAGKIEMKGGVRYMFLTHRDDVADHKKWADRFKSTRILHSDDVEPSTSDVELKLEGSGPWSIYEDVELIHTPGHSEGSVCMFHKSLKALFTGDHVIMTESGLSILEQYNHGSVPLQLENVEKLINLDFNWLIPGHGRRVHFKDGDEKAKNLEALVQKHREKQLVSFSKSGKA”, for which the protein production result is “failed”. The entry for “MASEMKFAWLLAPDTYWDEKKTFITAALESGIDHIVDTADSGRIKKLGNLTLISPDEDADIVLVGRDGEGDGTLELPETLEYSRDIEMASELSESGRQVAAYVEIRSKAHEELARRLGRVVDYLILVGEDWKIIPLENIIADLQEEDVKLIAAVADVDEARVALETLEHGTDGVLIEPADISQIKDIAALLENIESETYELKPATITRIEPIGSGDRVCVDTCSIMGIGEGMLVGSYSQGLFLVHSESLESEYVASRPFRVNAGPVQAYVMVPGGRTRYLSELETGDEVIIVDRDGRSRSAIVGRVKIEKRPLMLVEAEYEGMKVRTLLQNAETIRLVNDKGEPVSVSELGEGDRVLVYFDESARHFGMAIKETIIEKLEHHHHHH” is “not failed”.

Take “MASFPELPALRRLATLGRSWGLLSDFKYEQTRPDIFYGNLALDTSSLVAALSEDISGAGLNDLKVLDVGGGPGYFAEAFETLGATYFSVEPDVGEMSAAGIDVHGSVRGSGLDLPFLPDSFDVVYSSNVAEHVSAPWELGEEMLRVTRSGGLAILSYTIWLGPFGGHETGLWEHYVGGEFARDRYTKKHGHPPKNVFGESLFNVSCREGLEWGASVGNAELVAAFPRYHPYWVWWMVKVPVLREFAVSNLVLVFKKHLEHHHHHH”: the protein production result is given as “failed”. Consider “MASFSAETNSTDLLSQPWNEPPVILSMVILSLTFLLGLPGNGLVLWVAGLKMQRTVNTIWFLHLTLADLLCCLSLPFSLAHLALQGQWPYGRFLCKLIPSIIVLNMFASVFLLTAISLDRCLVVFKPIWCQNHRNVGMACSICGCIWVVAFVMCIPVFVYREIFTTDNHNRCGYKFGLSSSLDYPDFYGDPLENRSLENIVQPPGEMNDRLDPSSFQTNDHPWTVPTVFQPQTFQRPSADSLPRGSARLTSQNLYSNVFKPADVVSPKIPSGFPIEDHETSPLDNSDAFLSTHLKLFPSASSNSFYESELPQGFQDYYNLGQFTDDDQVPTPLVAITITRLVVGFLLPSVIMIACYSFIVFRMQRGRFAKSQSKTFRVAVVVVAVFLVCWTPYHIFGVLSLLTDPETPLGKTLMSWDHVCIALASANSCFNPFLYALLGKDFRKKARQSIQGILEAAFSEELTRSTHCPSNNVISERNSTTV”, for which the protein production entry is reported as “failed”. To “MASGKQFMKKPIVWTIAGVDSSGLAGVHADMETFSRLNVRACSVITAVTAQNAHSIIAVEEISRDQVAAQCRALELNLKPDAIKIGMLCSTPICEEIAYFLKGYEGFVVLDPIITSSSGTNLFFPDLQQHKNNLIQLFPYITIITPNRIEAEIILNRSIYSYQDIINAASDLLSLGAKQVLLKGGHVKDNSFSQDYWTDGKESFWIANRRFPETNYRGTGCVLSSALTACLALGYSIKDAIVIAKMYVNRGIRQSIEIDKDASQLYHDGWPEDEADLPYLSPTPFIKPVPSFKKYSMGFYPIVDSSHWLEMLLPLGIKCIQLRIKEASQERLEEEIKRSVHLANQYNAALFINDHWELAIHYGAAGVHLGQEDLEKADVDRINRSGLFLGISTHCYYEVARAHALNPSYVACGPIYETTSKIMPFQAQGIARLERWRKTLRYPLVAIGGITLKNLSDVLKTKIDGVSVISAITKASAPLVAAKQFLTQMNESHNE” belongs “failed”.

Regarding “MASHVDLLTELQLLEKVPTLERLRAAQKRRAQQLKKWAQYEQDLLHRKRKHERKRSTGGRRKKVSFEASVALLEASLRNDAEEVRYFLKNKVSPDLCNEDGLTALHQCCIDNFEEIVKLLLSHGANVNAKDNELWTPLHAAATCGHINLVKILVQYGADLLAVNSDGNMPYDLCEDEPTLDVIETCMAYQGITQEKINEMRAAPEQKMISDIHCMIAAGQDLDWIDGQGATLLHIAGANGYLRAAELLLDHGVRVDVKDWDGWEPLHAAAFWGQMPMAELLVSHGASLSARTSMDEMPIDLCEEEEFKVLLLELKHKHDVIMKSQLRHKSSLSRRTSSAGSRGKVVRRASLSDRTNLYRKEYEGEAILWQQRSAAEEQRTSTYNGDIRETRTDQENKDPNPRLEKPVLLSEFSTKISRGELDGPVENGLRAPVSTYQYALANGDIWKMHEIPDYSMAYGNPGMADVPPPWSGFKEQSPQTLLELKRQRAAAKLLSHPFLSTHLGSSVARSGEGSSEGKAPLIGGRTSPYSSNGTSVYYTVTSGDPPLLKFKAPMEEMEEKVHGCCRIS”, the protein production entry is listed as “failed”.

Take “MASILRWFVRAFALALAAQSVCANPRPEVIDTIAATPAGLVAVTEDGTGLWSLVDGSRPAWQARPRAPNARGDMQLEPVAVSPDGRWLAATRGYKDPVIVVRDAATGRAVREIKAPRSGVDGLRFAGDDVLVALYAGRLAAVWEASSGKARGVFELPAAPRQVAASADGRYLAVGQDKQRVTVYDLEGGKSLGNFELGSIASKSHAVPTHDILFMAFAYDGTVVVHHATGYIQRFDPRRAAPAALLGSQDIPLRGVATSLSPDRRVLLTADRPGALTLYRLDQPAPARSALRSALGEVTASAWEAGSRRFAVADNQGRVELWDARKPAGAALEGKHAGAIEQLAFASAGRFLVSSGRDGSIRVRETATGQEAVRLVGLGETGWVSMMPAGYFHSSGLPAEAAINVRIGSDVYGIDNFRERYYRPDILSAALQGRSVRPQRTLADTRPPPQVRADPVPASLAADTYTLVLQLTDQGGGIGDVRVLRNDVAVANHAADAQAAAGSQRRSIPVKLAAGRNEIKVIAFNAENSLSSKPLRLTLDVRATQPEKPVLHAMIVGINEFGEASLNLQYAVNDANAIARELRERTRGLYRDVRIELLTTPQQTSRASLIESLRRYQQLDAGDVFMFYVSTHGAVMGDKPVDQEYFLIPSNAKSPVFAHDAISQHELKRLFSSIPAGKKLLLFDTCFAGALGEALYQPAVERGVAENGAVNVLATAIGSTTLAASAPLEMSYEGYQEHGTFTWVVLQAFRGKAGGGKGNVVLTADLARYVAREVPALARRLQREQNPAVYATGQPFPVVAGR”: the protein production result is reported as “failed”. To “MASKKKPIDSRVDYSLILPVFFLVLIGLFSVYTATIHDYPSKIMVVMGQQLIWLIMGAAISFVVMLFSTEFLWKITPYLYGLGLILMIFPLIFYSPELVASTGAKNWVSIGSVTLFQPSEFMKISYILILARLTVTFKQKYKEKNLQEDGKLLLWFALLTLPIMILLALQKDLGTAMVFMAILAGLVLIAGISWQIILPVVGAVALIVALFMVVFLIPGGKEFLYHHMGVDTYQINRLSAWLNPFDYAGSIAYQQTQGMISIGSGGLFGKGFNIVELPVPVRESDMIFTVIAENFGFIGGSIVLALYLILIYRMLRVTFASNNLFYTYISTGFIMMILFHIFENIGAAVGILPLTGIPLPFISQGGSSLISNLIGVGLVLSMSYQNSLNQEKATERYFAHIKKESLTS” belongs “failed”; to “MASKSVHADITLLLDMEGVIREATLSPTMAAESVDGWLGRRWSDIAGAEGGDKVRRMVEDARRSGISAFRQINQPFPSGVEIPIEFTTMLLGDRTGMIAVGKNMQAVTELHSRLIAAQQAMERDYWRLRELETRYRLVFDAAADAVMIVSAGDMRIVEANRAAVNAISRVERGNDDLAGRDFLAEVAAADRDAVRDMLAQVRQRGTALSVLVHLGRYDRAWMLRGSLMSSERRQVFLLHFTPVTTTPAIDDVDDDAVLRGLIDRIPDGFVALDSEGVVRHANQAFLDLVQIGSKPAAVGRSLGVWMGRPGADLSSLLTLLRRYKTVRLFQTTIRGELGTETEVEVSAVDGEDDQYIGVLMRNVARRLDAADDHDALRQALGPISKQLGRSSLRKLVKNAVSIVEQHYVKEALLRSKGNRTATAELLGLSRQSLYAKLNCYGFDDKGVVASAADGAEGASDDAED”, “failed”; to “MASLCSARFLPSPSLDILSTKTKISSDSRSLGCSSSRVFAFSSVHRSSSRRNRNQLQVVSMAPEEEKLTRRNPLDFPIEWERPKPGRRPDIFPKFSPMKTPLPPPMPYDPPEEDEEEEEKKEEEEENPDQEEEEQPEKQQ”, “failed”. To “MASLQLCDGYLLFKPSVSPRFLSQRISHRLIPKASSSPPPSPSPSSSSSSLSFSRRELLYQSAAVSLSLSSIVGPARADEQLSEWERVFLPIDPGVVLLDIAFVPDEPSRGFLLGTRQTLLETKDGGSTWNPRSIPSAEEEDFNYRFNSISFKGKEGWIIGKPAILLYTADAGENWDRIPLSSQLPGDMVFIKATEDKSAEMVTDEGAIYVTSNRGYNWKAAIQETVSATLNRTVSSGISGASYYTGTFSAVNRSPDGRYVAVSSRGNFFLTWEPGQPYWQPHNRAVARRIQNMGWRADGGLWLLVRGGGLYLSKGTGITEEFEEVPVQSRGFGILDVGYRSEEEAWAAGGSGILLRTRNGGKSWNRDKAADNIAANLYAVKFVDDKKGFVLGNDGVLLRYVG” belongs “failed”.

With “MASLRLPAQLVTRGNLIHHNSSSSSSGRLSWRRSLTPENTIPLFPSSSSSSLNRERSIVVPVTCSAAAVNLAPGTPVRPTSILVVGATGTLGRQIVRRALDEGYDVRCLVRPRPAPADFLRDWGATVVNADLSKPETIPATLVGIHTVIDCATGRPEEPIKTVDWEGKVALIQCAKAMGIQKYVFYSIHNCDKHPEVPLMEIKYCTEKFLQESGLNHITIRLCGFMQGLIGQYAVPILEEKSVWGTDAPTRVAYMDTQDIARLTLIALRNEKINGKLLTFAGPRAWTTQEVITLCERLAGQDANVTTVPVSVLRVTRQLTRFFQWTNDVADRLAFSEVLSSDTVFSAPMTETNSLLGVDQKDMVTLEKYLQDYFSNILKKLKDLKAQSKQSDIYF”, the protein production result is reported as “failed”. As to “MASNEAGRALPKFGEWDVNDPATADGFTVIFSKAGEDKKTGRSSTKTNSQRKQDGDKPAVKKWLCFTFA”, the protein production result is “not failed”. The entry for “MASNIILFEDIFVVDQLDPDGKKFDKVTRVQATSHNLEMFMHLDVNTEVYPLAVGDKFTLALAPTLNLDGTPDTGYFTPGAKKTLADKYEYIMHGKLYKISERDGKTPKAELYVSFGGLLMLLKGDPAHISHFELDQRLFLLMRKL” is “failed”.

As for “MASPDGSGSESFRTRRRRNRARFALAAVLTFILVAVGVLALVFYELRPVSLKIAVGPGGGDDLKLVQALAQSFARDRAAVRLVPLVTGGATPSIEAFRDHKADLAVTRADLDLPADAQAVAVLRKNVVVLWAPSSAGKGKKSIKTITDLAGRRVGVIGRTPANVKLFDIILAESGVAPDKVQKEQFATGQLAEMARDPSLDAFLAVGPLDSKITGEAIAATAKARGEPRFLPVDVGDAIAKKYPIYDSEEIPGSIFSTQPARPEDKVDTVSVNHLIVARQSLSSVTVTKLTRQIFAARQQIAREMPLAGKIEAPDTEKDAALPAHRGAAAFIDGTDRTFMERNSDYIWGLVLLLSGLGSAGAWFRSYLTRDEREAGAKMRDRALAMVAKARKAETLEALDALQHEIDKILRDTLDCYDDGAIEDLEPFSLVLEQFHHAVMDRRAALSASGPGLIPVDPATLPAAHA”, the protein production entry is on record as “failed”.
